How the values were obtained:
[1] = target: T1, human recombinant prion protein hrPrP (PrP23-231) (Homo sapiens, UniProt P04156 P04156:23-231); assay: pulldown; conditions: tags: E. coli GST fusion, GST removed by thrombin cleavage; label: none; hybridized to oligo-dT-cellulose
[2] = target: human recombinant PrP90-231 (lacks N-terminal 23-90) (Homo sapiens, UniProt P04156 P04156:90-231)
[3] = target: T1, human recombinant prion protein hrPrP …; assay: FP filter; no tRNA; 250 mM NaCl, 2 mM MgCl2, 37 C; conditions: tags: E. coli GST fusion, GST removed by thrombin cleavage
[4] = target: T1, human recombinant prion protein hrPrP …; assay: FP filter; conditions: tags: E. coli GST fusion, GST removed by thrombin cleavage; label: 32P internal

B1: RQAAA (RQ11+12 with 3' poly-A15) (ssRNA)
RNA: GGGGUUUCCAACCGGAAUUUGAGGGAUGCCUAGGCAUCCCCCGUGCGUCCCUUUACGAGGGAUUGUCGACUCUAGUCGACGUCUGGGCGAAAAAUGUACGAGAGGACCUUUUCGGUACAGACGGUACCUGAGGGAUGCCUAGGCAUCCCCGCGCGCCGGUUUCGGACCUCCAGUGCGUGUUACCGCACUGUCGACCCAAAAAAAAAAAAAAA
B1: binds [1].

B2: RQ11+12 (ssRNA)
RNA: GGGGUUUCCAACCGGAAUUUGAGGGAUGCCUAGGCAUCCCCCGUGCGUCCCUUUACGAGGGAUUGUCGACUCUAGUCGACGUCUGGGCGAAAAAUGUACGAGAGGACCUUUUCGGUACAGACGGUACCUGAGGGAUGCCUAGGCAUCCCCGCGCGCCGGUUUCGGACCUCCAGUGCGUGUUACCGCACUGUCGACCC
For B2, the binding result [2] was “no binding” and the Kd ([3]; label: 32P internal (alpha-32P CTP)) was 26 nM.

B3: MNV:AP1 (ssRNA)
RNA: GGGUUCAUAGCCUAUUCGGCUUCGCGCAUGGGAAUUUGAGGGACGAUGGGGAAGUGGGAGCGCGUUUUAAAGGACCUUUUUCCCUCGCGUAGCUAGCUACGCGAGGUGACCCCCCGAAGGGGGGUGCCCC
Work on B3 yielded a Kd [4] of 3.8 nM.

B4: RQT157 (ssRNA)
RNA: GGGGUUUCGAACCGGAAUUUGAGGGAUGCCUAGGCAUCCCCCGUGCGUCCCUUUACGAGGGAUUGUCGACUCUAGAGGAUCCGGUACCUGAGGGAUGCCUAGGCAUCCCCGCGCGCCGGUUUCGGACCUCCAGUGCGUGUUACCGCACUGUCGACCC
For B4, the Kd ([3]; label: 32P internal) was 56 nM.
